Biological target: T1, BcgI A subunit, E53A mutant (UniProt Q07605 1-637, E53A)
T1 sequence (looked up): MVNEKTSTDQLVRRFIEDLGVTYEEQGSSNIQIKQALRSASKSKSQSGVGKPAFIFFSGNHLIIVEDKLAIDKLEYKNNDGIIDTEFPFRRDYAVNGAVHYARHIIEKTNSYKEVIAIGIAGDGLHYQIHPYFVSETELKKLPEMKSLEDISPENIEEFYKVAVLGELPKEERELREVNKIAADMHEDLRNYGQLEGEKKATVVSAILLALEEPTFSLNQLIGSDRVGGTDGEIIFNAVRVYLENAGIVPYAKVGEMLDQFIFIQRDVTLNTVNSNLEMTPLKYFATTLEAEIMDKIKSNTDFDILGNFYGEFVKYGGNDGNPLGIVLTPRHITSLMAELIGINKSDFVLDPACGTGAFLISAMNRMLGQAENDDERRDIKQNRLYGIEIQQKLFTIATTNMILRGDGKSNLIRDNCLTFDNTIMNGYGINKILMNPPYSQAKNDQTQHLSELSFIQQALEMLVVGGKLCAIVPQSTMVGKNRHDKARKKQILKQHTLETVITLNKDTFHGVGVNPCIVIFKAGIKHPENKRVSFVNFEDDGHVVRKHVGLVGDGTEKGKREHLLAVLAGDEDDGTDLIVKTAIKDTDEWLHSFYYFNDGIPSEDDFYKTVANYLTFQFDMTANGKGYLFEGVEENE
Assay: native MS

B1: BcgI B subunit (natural protein, UniProt Q07606 1-341, looked up)
chain: MNNLIKYSTFLISDLFDVVIGKTIDGNKAQRNENGTPYITRKATRNGFEFMIDGEKEKLYSGKLPVITIGNETSKPFVQEFHFFTGTKVNICIPKLDLNRNHLLYITTMIENATKMFSYSYTINSTRLKSLKILLPIKGEEPDWDYMNTYISKILSNMEKNFDVQQNDGVSDLRSLKDLSWSQFKMDEIFSINSGVRLTKADMKPGNIPFIGATDSNNGITEFTSSTNASFDGNVLGVNYNGSVVENFYHPYKAVFSDDVKRLKLKNYPNNKHVLLFMKVVILQQKVKYAYGYKFNATRMKEQIILLPTKADGTPDYEFMEQYMMRMENKVVGRTTEKEAD
Question: Does B1 bind?
Answer: binds
